Marks after values point to notes of the source that are not given here.
Molecular target: T1, mutant LEPR-A409E (Homo sapiens, UniProt P48357, A409E)
T1 construct: expressed in transfected cells; host or cells: HEK293
T1 sequence (P48357 22-1165 A409E): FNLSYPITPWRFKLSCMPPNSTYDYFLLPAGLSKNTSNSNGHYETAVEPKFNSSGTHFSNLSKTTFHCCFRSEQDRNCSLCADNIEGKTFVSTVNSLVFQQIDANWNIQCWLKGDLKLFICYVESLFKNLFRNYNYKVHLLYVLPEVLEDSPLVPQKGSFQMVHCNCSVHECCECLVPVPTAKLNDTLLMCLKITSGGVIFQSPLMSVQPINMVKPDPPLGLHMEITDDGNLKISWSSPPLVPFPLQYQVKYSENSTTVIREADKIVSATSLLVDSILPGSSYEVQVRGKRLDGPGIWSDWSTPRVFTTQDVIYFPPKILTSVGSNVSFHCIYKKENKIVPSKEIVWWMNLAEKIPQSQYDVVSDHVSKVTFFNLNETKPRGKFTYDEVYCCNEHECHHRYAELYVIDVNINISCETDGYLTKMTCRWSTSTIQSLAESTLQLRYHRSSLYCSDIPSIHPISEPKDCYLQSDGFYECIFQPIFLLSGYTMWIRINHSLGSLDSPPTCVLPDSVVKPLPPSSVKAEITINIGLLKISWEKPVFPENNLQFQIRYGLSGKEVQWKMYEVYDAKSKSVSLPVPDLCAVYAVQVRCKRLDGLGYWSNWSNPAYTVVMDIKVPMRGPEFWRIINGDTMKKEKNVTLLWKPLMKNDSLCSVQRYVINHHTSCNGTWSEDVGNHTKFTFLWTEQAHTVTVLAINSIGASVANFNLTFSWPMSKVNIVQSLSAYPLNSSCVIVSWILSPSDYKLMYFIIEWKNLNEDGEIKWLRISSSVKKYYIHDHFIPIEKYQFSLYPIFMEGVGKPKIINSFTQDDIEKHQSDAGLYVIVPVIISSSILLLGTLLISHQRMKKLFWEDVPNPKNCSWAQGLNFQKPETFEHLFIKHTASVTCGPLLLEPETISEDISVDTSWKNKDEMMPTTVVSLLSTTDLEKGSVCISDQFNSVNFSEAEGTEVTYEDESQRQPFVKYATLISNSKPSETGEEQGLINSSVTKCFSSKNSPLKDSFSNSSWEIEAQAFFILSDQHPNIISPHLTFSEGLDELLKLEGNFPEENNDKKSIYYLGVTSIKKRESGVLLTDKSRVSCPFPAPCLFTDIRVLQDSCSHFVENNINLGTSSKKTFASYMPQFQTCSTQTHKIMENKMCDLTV
Assay: STAT3-Luciferase reporter assay in HEK293 cells that express hLEPR-A409E
Type: cell-based
Description: Missense mutation A409E in LEPR gene was associated with autosomal recessive early onset of obesity in human (Farooqi et al., 2007, N Engl J Med 356 (3): 237-247). […] To test whether the anti-LEPR antibodies can activate these mutant human LEPR receptors, the STAT3-Luciferase reporter assay was established using HEK293 cells that express hLEPR-A409E. These cells were cultured in growth medium DMEM/F12 (Gibco, #12430-054), 10% fetal bovine serum (FBS, Gibco, #10082-147), antibiotics (Gibco, #15240-062), Sodium Pyruvate (Gibco, #11360-070) and GlutaMax supplement (Gibco, #35050-061) in the presence of drug selection 250 μg/mL of Hygromycin (Invitrogen, #10687010) and 800 μg/mL of Geneticin (Corning, #30-234-C1).
Before plating the cells for luciferase assays, the poly-D-Lysine coated 96-well plates (Corning Inc, Bio Coat, #354651, Poly-D-Lysing coated) were rinsed once with phosphate buffered solution (PBS) and once by plating medium. Then, 20,000 to 24,000 STAT3-Luciferase reporter cells were seeded onto the poly-D-lysine 96-well plates in 100 μL/well plating medium consist of DMEM/F12 (3:1, Gibco, #93-0152DK), 10% fetal bovine serum (FBS, Gibco, #10082-147), 1x GlutaMax supplement (Gibco, #35050061) 20 mM HEPES (Gibco, #15630-080) and antibiotics (Gibco, 15240-062). After overnight culture at 37°° C. with 5% CO2, the culture medium was changed to 75 μL assay medium containing OPTI-MEM (Gibco, #31985-070) with 1% BSA (BSA Fraction V (7.5%), Gibco, #15260-037), 0.1% dialyzed fetal bovine serum (FBS, Gibco, #26400-044) for 1 hour at 37° C. with 5% CO2. Test articles were diluted into 25 μL assay medium and were added to each well. Cells were further incubated for 20 hours at 37° C. with 5% CO2. Cell lysing and One-Glo luciferase substrate solution (Promega, #E6120) were then added to each well, and relative luciferase units (RLUs) were measured on a ClarioStar plate reader. The concentration response curves were then plotted as raw RLU readings to the function of log drug concentrations. EC50 was calculated using GraphPad Prism software.

human leptin: recombinant human leptin protein (SEQ ID NO:27), positive control
Bottom (RLU) (LEPR-A409E STAT3-luciferase): 451.8 RLU
Hill Slope (LEPR-A409E STAT3-luciferase): 0.2011
Top (RLU) (LEPR-A409E, top of curve projected by GraphPad Prism software): 259289* RLU
activation of LEPR-A409E (STAT3-luciferase): did not activate
